Assay [1] has as its target T1, Pch-Dac (N,N-diacetylchitobiose deacetylase) (Thermococcus chitonophagus, UniProt A0A160VQZ8).
T1 construct: gene CHITON_0574; full gene in pET151D-TOPO, N-terminal 6xHis-TEV tag cut, expressed in E. coli BL21-Magic
T1 sequence (A0A160VQZ8 1-267): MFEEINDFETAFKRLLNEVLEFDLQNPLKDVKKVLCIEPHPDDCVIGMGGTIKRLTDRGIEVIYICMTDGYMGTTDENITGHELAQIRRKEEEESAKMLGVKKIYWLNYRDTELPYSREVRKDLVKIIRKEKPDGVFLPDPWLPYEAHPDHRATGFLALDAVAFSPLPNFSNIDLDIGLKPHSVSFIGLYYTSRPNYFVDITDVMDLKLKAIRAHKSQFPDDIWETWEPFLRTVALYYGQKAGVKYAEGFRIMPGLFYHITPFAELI
The experiment in a line: ITC total heat (Happ) and 1H NMR. Particulars: ITC pH 6.5, 75 °C; NMR HEPES pH 7.5; non-reducing-end deacetylation. Format: biochemical.

Assay [2] deals with N,N-diacetylchitobiose deacetylase from Pyrococcus chitonophagus (Pyrococcus chitonophagus DSM 10152). Nature of the assay: crystal structure; three crystal forms: P2(1) with (GlcNAc)2 (two hexamers in the asymmetric unit), P3(2)21 unliganded (half a hexamer, other half by the crystallographic two-fold axis), P2(1)2(1)2(1) (one hexamer); data at 100 K.
Assay [3] has the same target. The experiment in a line: SAXS; batch mode, dilution series 0.2-3.48 mg/mL in Buffer A (20 mM TRIS pH 7.4, 200 mM NaCl), room temperature; curves fitted with the crystallographic hexamer and a 'dodecameric' model (CRYSOL, OLIGOMER).
The target is the same in assay [4]. The experiment in a line: SEC-SAXS; stock solution 4.7 mg/mL, Superdex 200 Increase 5/150 GL, injected at 4 °C, 0.35 mL/min; main peak fitted with the crystallographic hexamer, chi^2 = 1.2.

For `CC(=O)N[C@H]1[C@H](O[C@H]2[C@H](O)[C@@H](N)C(O)O[C@@H]2CO)O[C@H](CO)[C@@H](O)[C@@H]1O` (stereo partly drawn) [GlcNAc-GlcN, 1,4-β-D-acetyl glucosaminyl-D-N-glucosamine], in assay [1], the “ITC total heat (Happ) and 1H NMR” value is “Reaction was observed only in the case of GlcNAc-GlcN”.

As for “N,N-diacetylchitobiose deacetylase from Pyrococcus chitonophagus (enzyme)”, the stoichiometry N in assay [2], in assay [3] and in assay [4] was 6 in each case. The compound also had a percent of the scattering accounted for by the hexameric model in assay [3] of 84 to 87%.

What is called stoichiometry N is the number of molecules, sites or subunits per partner or assembly.

The values above are taken from article PMC9779004, “Structural, Thermodynamic and Enzymatic Characterization of N,N-Diacetylchitobiose Deacetylase from Pyrococcus chitonophagus” (International Journal of Molecular Sciences, 2022).
